Assay [1] deals with T1, API5(Apoptosis inhibitor protein 5) 단백질, Expi293 세포에서 일시발현 후 정제 (human, UniProt Q9BZZ5-2 1-504).
T1 construct: also called rhAPI5; AAC-11
T1 sequence: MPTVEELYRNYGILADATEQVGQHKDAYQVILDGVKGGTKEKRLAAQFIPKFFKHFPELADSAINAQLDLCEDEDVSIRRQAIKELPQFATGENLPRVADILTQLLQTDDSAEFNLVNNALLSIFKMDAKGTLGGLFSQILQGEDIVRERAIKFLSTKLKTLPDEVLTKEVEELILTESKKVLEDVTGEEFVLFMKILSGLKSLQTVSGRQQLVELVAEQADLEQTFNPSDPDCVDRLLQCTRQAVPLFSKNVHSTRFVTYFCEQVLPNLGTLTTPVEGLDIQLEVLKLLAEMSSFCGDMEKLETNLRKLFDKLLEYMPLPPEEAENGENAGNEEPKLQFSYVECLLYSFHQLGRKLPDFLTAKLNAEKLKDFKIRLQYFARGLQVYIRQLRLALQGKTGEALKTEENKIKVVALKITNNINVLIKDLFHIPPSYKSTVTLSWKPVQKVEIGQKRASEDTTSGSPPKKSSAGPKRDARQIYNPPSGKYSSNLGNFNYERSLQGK
The assay can be described thus: ELISA, 3F2 serially diluted 3.125-200 nM (8 points including 0 nM). (In an ELISA, binding on a coated surface is turned into a signal by an enzyme label.)

Assay [2] has as its target T1, API5(Apoptosis inhibitor protein 5) …. The assay is described as follows: SPR, Biacore T200, 3F2 serially diluted 3.125-100 nM (7 points including 0 nM). On the technique in general: SPR reads the build-up and loss of mass on a sensor chip optically.

B1: 3F2 항체 (API5 표적 인간 항체 3F2) (antibody, V domains shown)
VH: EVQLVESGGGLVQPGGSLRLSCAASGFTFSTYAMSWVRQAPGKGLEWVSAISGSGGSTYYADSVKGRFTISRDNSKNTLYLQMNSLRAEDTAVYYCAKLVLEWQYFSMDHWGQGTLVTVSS
VL: DIQMTQSPSSLSASVGDRVTITCRASQSISRYLNWYQQKPGKAPKLLIYAASTLQSGVPSRFSGSGSGTDFTLTISSLQPEDFATYYCQQSYSFPWTFGQGTKVEIK
notes: Purified 3F2 antibody as used in the ELISA and SPR; IgG is used as the control in later experiments; also called API5 항체 3F2; 3F2 antibody
The term Kd denotes the concentration at which binding is half-saturated. A higher Kd goes with a looser complex. Turning to B1, the dissociation constant (Kd) in assay [1] was determined as 1.2 nM; in assay [2], 4.62 nM.

The values are drawn from patent KR20230022334A (dated 2023).
